Experimental data reported in patent US20220193271A1 (REGENTS OF THE UNIVERSITY OF MICHIGAN, published 2022).
Primed or numbered codes have the meaning given here. Ends that are not written are not given here. Cy5.5 = cyanine fluorophore coupled as NHS ester to the lysine side chain; Cy5.5″ = fluorophore Cy5.5, coupled as NHS ester to Lys side chain

B1: TLQ*-Cy5.5 (scrambled control peptide TLQWNQS linked through a GGGSK linker to Cy5.5) (peptide)
peptide: TLQWNQSGGGSK(Cy5.5″)-NH2
notes: Scrambled control of QQT*-Cy5.5; also called TQL*-Cy5.5
B2: QQT*-Cy5.5 (peptide QQTNWSL linked at its C-terminus through a GGGSK linker to the fluorophore Cy5.5) (peptide)
peptide: QQTNWSLGGGSK(Cy5.5)-NH2
notes: Linear monomer made by Fmoc solid-phase synthesis; m/z 1827.67; also called target peptide

Experiments:
[1] = target: human cMet on cells (HT29 human colorectal cancer cells; S114 cells; human colon tissue and organoids) (human) (UniProt P08581); experiment: confocal microscopy, HT29 cells with control or cMet siRNA
[2] = target: human cMet on cells (HT29 human colorectal cancer cells; S114 cells; human colon tissue and organoids) (human) (UniProt P08581); experiment: confocal microscopy, HT29 versus SW480 cells
[3] = target: human cMet on cells (HT29 human colorectal cancer cells; S114 cells; human colon tissue and organoids) (human) (UniProt P08581); experiment: confocal microscopy, S114 versus NIH3T3 cells
[4] = target: T1, human cMet on cells (HT29 human colorectal cancer cells; S114 cells; human colon tissue and organoids) (human, UniProt P08581 25-1390); experiment: confocal microscopy, S114 versus NIH3T3 cells, 5 µM peptide
T1 construct: whole, on cells; also called mesenchymal-epithelial transition factor
Text: (§1) FIG. 11. Peptide validation with mouse cells in vitro. […] Two-way ANOVA models were fit with terms for 6 conditions and 6 replicate slides on log-transformed data. Measurements were an average of 5 randomly chosen cells on 6 slides for each condition. […] An ANOVA model was fit to log-transformed data with terms for 6 conditions. There were 6 replicate slides per condition and 10 cells measured per slide.
(§2) HT29, SW480, S114 and NIH3T3 cells were inoculated in 12-well cell culture plates with circle glass coverslips to about 80% confluence. The cells were blocked with 1×PBS plus 2% BSA for 1 hour at 4° C., then were incubated with 5 μM peptides for 10 min at RT in the dark, washed thrice, and fixed with 4% PFA for 5 min, washed with 1×PBS, then mounted on glass slides with ProLong Gold reagent containing DAPI (Invitrogen, Waltham, Mass.).

[5] = target: T1, human cMet on cells (HT29 human …); experiment: confocal microscopy, HT29 versus SW480 cells, 5 µM peptide
Protocol: FIG. 10. Peptide validation with human colorectal cancer cells in vitro. […] Two-way ANOVA models were fit with terms for 6 conditions and 6 replicate slides on log-transformed data. Measurements were an average of 5 randomly chosen cells on 6 slides for each condition.
(§3) HT29, SW480, S114 and NIH3T3 cells were inoculated in 12-well cell culture plates with circle glass coverslips to about 80% confluence. The cells were blocked with 1×PBS plus 2% BSA for 1 hour at 4° C., then were incubated with 5 μM peptides for 10 min at RT in the dark, washed thrice, and fixed with 4% PFA for 5 min, washed with 1×PBS, then mounted on glass slides with ProLong Gold reagent containing DAPI (Invitrogen, Waltham, Mass.). As positive control, after blocking with 2% BSA for 1 hour at 4° C., A 1:3000 dilution of primary monoclonal rabbit anti-cMet antibody (Cell Signaling Technology, #8198) was incubated with cells overnight at 4° C. […] Confocal fluorescence images were collected using a 63× oil-immersion objective (Leica SP5 Inverted 2-Photon FLIM Confocal). Fluorescence intensities from five cells in two independent images were quantified using custom Matlab (Mathworks) software.

[6] = target: T1, human cMet on cells (HT29 human …); experiment: confocal microscopy, HT29 cells with control or cMet siRNA, 5 µM peptide
Text: FIG. 2. In vitro validation with cMet knockdown. […] Fluorescence intensities for D) peptide and E) antibody were reduced with HT29 knockdown cells transfected with sicMet-targeting siRNA. […] A two-way ANOVA model was fit with terms for 6 conditions and 6 replicate slides on log-transformed data. Measurements were an average of 5 randomly chosen cells on 6 slides for each condition.
as §3

[7] = target: T1, human cMet on cells (HT29 human …); experiment: flow cytometry, QQT*-Cy5.5 at 0-200 nmol/L on HT29 cells, 1 hour at 4 °C
Protocol: We assessed the binding affinity of QQT*-Cy5.5 to HT29 cells by measuring the apparent dissociation constant. HT29 cells were blocked with 0.5% BSA, and then approximately 10⁵ cells were incubated with QQT*-Cy5.5 at concentrations of 0, 10, 25, 50, 75, 100, 125, 150, or 200 nmol/L for 1 hour at 4° C. Cells then were washed 3 times with 1×PBS containing 0.5% BSA to remove unbound peptides before analysis with flow cytometry (FACS Canto; BD Biosciences, San Jose, Calif.). Sample means were used to calculate the equilibrium dissociation constant KD using nonlinear regression analysis with Origin 6.1 data analysis software (OriginLab, Northampton, Mass.). […] I₀ and Iₘₐₓ are the initial and maximum fluorescence intensities, corresponding to no peptide and peptide saturation, respectively, and [X] represents the concentration of the bound peptide.³⁴
Specific binding of QQT*-Cy5.5 to cMet was confirmed by adding unlabeled QQT* to compete for binding. […] An apparent dissociation constant of kd=57 nM was measured for binding by QQT*-Cy5.5 to HT29 cells using flow cytometry, FIG. 3C, and an apparent association time constant of k=0.62 min⁻¹ (1.6 min) was measured for the same cells, supporting rapid binding with topical administration, FIG. 3D.

[8] = target: T2, mouse cMet on colonocytes of CPC;Apc mouse colon (mouse, UniProt P16056 25-1379); experiment: ex vivo NIR fluorescence imaging of excised CPC;Apc mouse colon
T2 construct: whole, on cells; Target in tissue staining; also called cMet (mouse colon adenoma / dysplasia)
Protocol: After imaging was completed, the mice were euthanized. The colon was resected and divided longitudinally, the colon was excised, flushed with PBS, and opened longitudinally for imaging with the NIR fluorescence imaging system (Pearl®, LI-COR Biosciences). Images were collected with […] resolution using λex=685 nm and λem=720 nm. Images were analyzed with custom software (Image Studio, Li-Cor Biosciences). The normal colon region with an equal area adjacent to the polyps was used to measure background. Prism software (v6.02, GraphPad) was used to plot data.
After imaging was completed, the CPC;Apc mice were euthanized, and the colon was excised and divided longitudinally to expose the mucosal surface for collection of macroscopic white light and fluorescence images, FIGS. 5 L,M and 13A, B. The polyp locations co-localized on white light and fluorescence images, FIG. 13C. […] Immunohistochemistry was performed with a known antibody to validate increased expression of cMet in mouse dysplasia, FIG. 13E, by comparison with normal colonic mucosa, FIG. 13F.

[9] = target: T1, human cMet on cells (HT29 human …); experiment: confocal microscopy, S114 cells, reference TLQ*-Cy5.5
Text: as §1, §2

human cMet on cells (HT29 human colorectal cancer cells; S114 cells; human colon tissue and organoids) (human), sequence (P08581 25-1390): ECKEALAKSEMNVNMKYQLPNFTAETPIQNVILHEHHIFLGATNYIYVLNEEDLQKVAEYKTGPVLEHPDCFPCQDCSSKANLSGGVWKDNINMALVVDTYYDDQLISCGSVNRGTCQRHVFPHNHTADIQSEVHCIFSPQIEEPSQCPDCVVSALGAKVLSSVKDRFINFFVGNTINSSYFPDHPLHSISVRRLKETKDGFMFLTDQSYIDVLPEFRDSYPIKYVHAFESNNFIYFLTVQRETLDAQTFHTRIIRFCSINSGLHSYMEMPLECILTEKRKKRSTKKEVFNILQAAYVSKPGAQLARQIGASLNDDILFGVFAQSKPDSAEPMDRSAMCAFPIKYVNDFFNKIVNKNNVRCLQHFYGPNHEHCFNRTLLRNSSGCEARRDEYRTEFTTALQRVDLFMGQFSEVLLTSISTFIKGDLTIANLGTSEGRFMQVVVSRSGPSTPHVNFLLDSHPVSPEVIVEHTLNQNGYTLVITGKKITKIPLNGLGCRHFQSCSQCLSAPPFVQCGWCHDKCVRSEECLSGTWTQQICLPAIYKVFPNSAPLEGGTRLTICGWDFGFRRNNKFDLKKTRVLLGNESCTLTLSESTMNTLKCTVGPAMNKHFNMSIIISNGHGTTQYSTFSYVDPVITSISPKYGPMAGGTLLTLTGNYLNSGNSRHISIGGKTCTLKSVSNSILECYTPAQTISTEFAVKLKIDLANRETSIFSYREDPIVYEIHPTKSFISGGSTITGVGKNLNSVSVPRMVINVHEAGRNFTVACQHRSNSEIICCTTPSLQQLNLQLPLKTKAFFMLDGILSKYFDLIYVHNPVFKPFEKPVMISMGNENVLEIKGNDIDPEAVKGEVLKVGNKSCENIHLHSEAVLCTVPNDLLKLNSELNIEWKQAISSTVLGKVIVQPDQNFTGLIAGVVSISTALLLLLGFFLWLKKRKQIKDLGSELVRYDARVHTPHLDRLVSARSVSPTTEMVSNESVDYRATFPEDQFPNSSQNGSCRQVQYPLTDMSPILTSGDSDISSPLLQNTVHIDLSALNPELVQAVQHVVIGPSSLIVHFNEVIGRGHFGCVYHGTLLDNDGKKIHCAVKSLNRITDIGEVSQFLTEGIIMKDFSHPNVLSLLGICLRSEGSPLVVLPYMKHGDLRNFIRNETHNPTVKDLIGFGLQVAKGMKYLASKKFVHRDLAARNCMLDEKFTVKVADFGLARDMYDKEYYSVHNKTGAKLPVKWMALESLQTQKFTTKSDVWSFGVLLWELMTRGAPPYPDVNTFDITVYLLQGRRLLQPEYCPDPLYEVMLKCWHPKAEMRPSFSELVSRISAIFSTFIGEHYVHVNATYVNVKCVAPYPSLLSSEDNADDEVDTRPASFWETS
T1 sequence (P08581 25-1390): as above
T2 sequence (P16056 25-1379): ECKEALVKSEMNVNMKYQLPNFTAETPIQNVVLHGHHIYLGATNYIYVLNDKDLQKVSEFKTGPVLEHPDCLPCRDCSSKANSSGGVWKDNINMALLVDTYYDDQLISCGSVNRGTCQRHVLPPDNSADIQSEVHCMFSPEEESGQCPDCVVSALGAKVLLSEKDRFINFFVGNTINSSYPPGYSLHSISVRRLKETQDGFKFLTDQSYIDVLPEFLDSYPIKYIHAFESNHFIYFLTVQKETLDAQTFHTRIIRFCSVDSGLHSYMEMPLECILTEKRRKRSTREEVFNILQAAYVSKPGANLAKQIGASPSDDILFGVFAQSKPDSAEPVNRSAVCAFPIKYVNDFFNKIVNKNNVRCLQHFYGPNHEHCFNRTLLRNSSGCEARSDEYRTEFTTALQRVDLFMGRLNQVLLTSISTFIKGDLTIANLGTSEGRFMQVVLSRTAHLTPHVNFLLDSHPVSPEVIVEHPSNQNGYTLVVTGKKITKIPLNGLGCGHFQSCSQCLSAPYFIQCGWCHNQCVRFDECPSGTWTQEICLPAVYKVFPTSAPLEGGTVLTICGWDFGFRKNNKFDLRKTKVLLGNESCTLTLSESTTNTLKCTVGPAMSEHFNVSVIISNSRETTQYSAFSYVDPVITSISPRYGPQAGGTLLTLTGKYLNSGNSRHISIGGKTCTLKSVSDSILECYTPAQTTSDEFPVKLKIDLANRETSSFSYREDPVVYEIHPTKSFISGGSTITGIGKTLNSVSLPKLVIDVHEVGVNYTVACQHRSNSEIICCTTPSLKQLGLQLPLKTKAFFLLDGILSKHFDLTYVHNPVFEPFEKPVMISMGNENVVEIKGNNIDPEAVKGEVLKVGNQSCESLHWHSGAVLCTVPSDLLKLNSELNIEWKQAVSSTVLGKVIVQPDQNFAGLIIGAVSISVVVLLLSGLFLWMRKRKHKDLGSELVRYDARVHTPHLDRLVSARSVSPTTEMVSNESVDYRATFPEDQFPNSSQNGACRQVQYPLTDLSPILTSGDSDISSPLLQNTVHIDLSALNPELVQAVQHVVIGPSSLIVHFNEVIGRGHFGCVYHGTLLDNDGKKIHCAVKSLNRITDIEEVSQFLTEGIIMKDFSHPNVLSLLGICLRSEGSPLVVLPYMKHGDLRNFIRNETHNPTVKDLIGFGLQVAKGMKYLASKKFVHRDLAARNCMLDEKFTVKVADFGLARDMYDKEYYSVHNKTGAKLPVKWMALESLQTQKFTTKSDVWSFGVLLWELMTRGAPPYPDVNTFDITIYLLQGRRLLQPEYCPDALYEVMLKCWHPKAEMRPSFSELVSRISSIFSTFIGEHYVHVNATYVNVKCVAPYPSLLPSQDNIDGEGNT

| Molecule | fold reduction of fluorescence intensity with knockdown of cMet (siCL versus sicMet HT29 cells) [1] [fold] | fold change of mean intensity, HT29 (cMet+) versus SW480 (cMet-) cells [2] [fold] | fold change of mean intensity, S114 (cMet+) versus NIH3T3 (cMet-) cells [3] [fold] | fold change of mean intensity, S114 (cMet+) versus NIH3T3 (cMet-) cells [4] [fold] | fold change of mean intensity, HT29 (cMet+) versus SW480 (cMet-) cells [5] [fold] | fold change of fluorescence intensity with knockdown of cMet (siCL versus sicMet HT29 cells) [6] [fold] | Kd [7] [nM] | binding result [8] | fold fluorescence intensity versus TLQ*-Cy5.5 [9] [fold] | fold reduction of fluorescence intensity with knockdown of cMet (siCL versus sicMet HT29 cells) [6] [fold] |
| --- | --- | --- | --- | --- | --- | --- | --- | --- | --- | --- |
| primary monoclonal rabbit anti-cMet antibody (Cell Signaling Technology, #8198) detected with AF488-labeled secondary antibody | 4.1 | 4.3 | 6.7 |  |  |  |  |  |  |  |
| B1 |  |  |  | 0.72 | 0.85 | 0.96 |  |  |  |  |
| B2 |  |  |  | 2.4 | 2.1 |  | 57 | binds | 7 | 2.9 |
